Data as given in US20200140543A1 (Memorial Sloan Kettering, published 2020).

T1: Recombinant human A33 protein (human, UniProt Q99795 22-235, limits assumed)
T1 construct: Bought protein, immobilized on the sensor chip by amine coupling; also called human A33 antigen; A33 glycoprotein antigen
T1 sequence (looked up): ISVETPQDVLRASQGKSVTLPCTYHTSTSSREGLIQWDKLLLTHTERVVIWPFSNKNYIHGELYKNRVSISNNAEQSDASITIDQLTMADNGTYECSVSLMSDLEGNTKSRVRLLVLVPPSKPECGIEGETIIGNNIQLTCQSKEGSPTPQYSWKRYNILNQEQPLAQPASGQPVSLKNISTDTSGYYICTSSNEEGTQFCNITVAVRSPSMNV

B1: huA33-C825 bispecific antibody (humanized A33 IgG1-murine C825 scFv) (bispecific antibody)
heavy: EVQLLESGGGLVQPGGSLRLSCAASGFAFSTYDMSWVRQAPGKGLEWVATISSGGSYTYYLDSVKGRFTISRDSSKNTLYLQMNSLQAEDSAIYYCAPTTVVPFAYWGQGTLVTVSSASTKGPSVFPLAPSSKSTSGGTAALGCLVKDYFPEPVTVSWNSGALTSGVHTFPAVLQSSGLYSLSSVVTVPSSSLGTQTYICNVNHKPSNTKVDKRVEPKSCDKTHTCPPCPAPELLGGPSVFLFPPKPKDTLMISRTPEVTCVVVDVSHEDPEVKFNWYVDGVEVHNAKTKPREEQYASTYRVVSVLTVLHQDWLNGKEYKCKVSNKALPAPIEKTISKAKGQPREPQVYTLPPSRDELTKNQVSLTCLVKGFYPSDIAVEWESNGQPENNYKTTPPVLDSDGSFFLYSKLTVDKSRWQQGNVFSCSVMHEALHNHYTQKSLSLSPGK
light: DIQMTQSPSSLSVSVGDRVTITCKASQNVRTVVAWYQQKPGLAPKTLIYLASNRHTGVPSRFSGSGSGTDFTFTISSLQPEDIATYFCQQHWSYPLTFGQGTKVEVKRTVAAPSVFIFPPSDEQLKSGTASVVCLLNNFYPREAKVQWKVDNALQSGNSQESVTEQDSKDSTYSLSSTLTLSKADYEKHKVYACEVTHQGLSSPVTKSFNRGECGGGGSGGGGSASHVKLQESGPGLVQPSQSLSLTCTVSGFSLTDYGVHWVRQSPGKGLEWLGVIWSGGGTAYNTALISRLNIYRDNSKNQVFLEMNSLQAEDTAMYYCARRGSYPYNYFDAWGCGTTVTVSSGGGGSGGGGSGGGGSQAVVIQESALTTPPGETVTLTCGSSTGAVTASNYANWVQEKPDHCFTGLIGGHNNRPPGVPARFSGSLIGDKAALTIAGTQTEDEAIYFCALWYSDHWVIGGGTRLTVLG
notes: IgG-scFv format: the anti-DOTA-Bn scFv C825 is linked to the carboxyl end of the huA33 light chain; also called anti-A33/anti-DOTA-Bn (metal) bispecific antibody
B2: huA33-IgG1 (monospecific humanized antibody A33) (antibody, V domains shown)
VH: EVQLVESGGGLVKPGGSLRLSCAASGFAFSTYDMSWVRQAPGKRLEWVATISSGGSYTYYLDSVKGRFTISRDNAKNSLYLQMNSLRAEDTAVYYCAPTTVVPFAYWGQGTLVTVSS
VL: DIQMTQSQSSLSTSVGDRVTITCKASQNVRTVVAWYQQKPGKSPKTLIYLASNRHTGVPSRFSGSGSGTEFTLTISNVQPEDFADYFCLQHWSYPLTFGSGTKLEIKR

Target: T1, Recombinant human A33 protein
Assay: SPR, Biacore T100; A33 immobilized by amine coupling, antibody as analyte, bivalent analyte model
Method: Binding affinity was measured by Biacore T100.
Biacore T100 Biosensor, CMS sensor chip, and related reagents were purchased from GE Healthcare. Recombinant human A33 protein was purchased from Novoprotein. A BSA-(Y)-DOTA-Bn conjugate was prepared as described (Cheal et al., supra). A33 and DOTA antigens were immobilized using the Amino Coupling kit (GE Healthcare). Purified bispecific antibodies and control antibodies were analyzed, and data were fit to a bivalent analyte model using the Biacore T100 evaluation software as described (Cheal et al., supra).

| Binder | Kd [nM] | koff [s⁻¹] | kon [M⁻¹ s⁻¹] |
| --- | --- | --- | --- |
| B1 | 63.5 | 0.00581 | 91500 |
| B2 | 1.71 | 0.00105 | 614000 |
